One assay concerns Fc fragment alone. Briefly: ELISA binding to Fc fragment alone. The settings on record: antibody at 10 μg/mL. As to the method: The A3 antibody directed against FLT3 was produced by a phage display strategy and the antibody selection was performed by using ECD of human or mouse recombinant FLT3 produced in NSO cell line. To identify antibodies cross-reacting with both human and mouse FLT3, phages were selected by three rounds of panning, according to methods well known in the art (Philibert, P. et al. A focused antibody library for selecting scFvs expressed at high levels in the cytoplasm. BMC Biotechnol. 7, 81; 2007), first against the ECD of human FLT3, then against the ECD of mouse FLT3 and then against the ECD of human FLT3. A batch of one selected antibody named A3 was tested for its ability to bind to the ECD of human or mouse recombinant FLT3 using an ELISA technique.

The target of the next assay is T1, FLT3 (Homo sapiens, UniProt P36888).
T1 construct: expressed in transfected cells; host or cells: RS4-11
T1 sequence (P36888 27-993): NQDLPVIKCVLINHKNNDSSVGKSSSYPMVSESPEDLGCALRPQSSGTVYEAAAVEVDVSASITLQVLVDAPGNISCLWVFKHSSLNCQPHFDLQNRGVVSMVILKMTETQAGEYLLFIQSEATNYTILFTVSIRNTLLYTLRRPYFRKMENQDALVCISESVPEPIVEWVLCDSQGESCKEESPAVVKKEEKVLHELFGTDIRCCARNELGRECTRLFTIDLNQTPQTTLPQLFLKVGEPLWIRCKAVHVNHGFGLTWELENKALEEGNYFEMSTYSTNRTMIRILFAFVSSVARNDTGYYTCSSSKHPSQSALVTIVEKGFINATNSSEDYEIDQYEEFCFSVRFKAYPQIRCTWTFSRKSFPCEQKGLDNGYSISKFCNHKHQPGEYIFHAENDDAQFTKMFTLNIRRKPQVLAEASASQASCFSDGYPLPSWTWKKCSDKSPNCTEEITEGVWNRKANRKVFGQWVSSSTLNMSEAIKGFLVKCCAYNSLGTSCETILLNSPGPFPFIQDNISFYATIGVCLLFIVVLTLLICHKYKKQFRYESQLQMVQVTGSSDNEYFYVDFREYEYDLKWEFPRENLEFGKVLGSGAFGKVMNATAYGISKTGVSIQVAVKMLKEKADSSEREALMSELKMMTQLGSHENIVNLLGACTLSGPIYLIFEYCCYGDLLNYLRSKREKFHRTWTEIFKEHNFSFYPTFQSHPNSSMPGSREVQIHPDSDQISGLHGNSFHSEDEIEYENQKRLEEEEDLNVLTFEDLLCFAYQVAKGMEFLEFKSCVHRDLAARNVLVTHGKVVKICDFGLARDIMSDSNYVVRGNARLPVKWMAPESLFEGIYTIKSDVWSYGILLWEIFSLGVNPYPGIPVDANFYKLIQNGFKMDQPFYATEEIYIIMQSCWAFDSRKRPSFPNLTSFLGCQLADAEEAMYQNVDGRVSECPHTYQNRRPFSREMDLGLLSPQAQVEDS
The experiment in a line: FL-induced FLT3 auto-phosphorylation assay in RS4-11 cells. Type of assay: cell-based. The settings on record: antibody at 10 and 100 μg/ml. As for the experimental part: Cell. RS4-11 cells, used for auto-phosphorylation assays, were maintained in RPMI-1640 (Invitrogen) and 10% Fetal Calf Serum. They were transfected as in the case of HEK cells (see above)
Auto-Phosphorylation assays. A density of 50,000 cells per well was used to carry out this assay in suspension in 384-well small volume plates to determine the degree of phosphorylation of FLT3. In the aim to discover antagonist compounds and to develop this assay, we were determined the efficiency of FL on RS4-11 cells.
Cells were incubated with 1 nM of rh-FL in the presence of increasing concentrations of the antibody. In the plates containing RS4-11 cells (5 μL/well), 5 μL of compounds to be tested were added and incubated for 1 h at room temperature prior to the addition of 2 μof rh-FL at 0.1 μM. After incubation of 3 min at room temperature of rh-FL, 4 μl of lysis buffer were added and incubated for 2 h at room temperature. A mix of anti-FLT3 and an anti-TYR-969 FLT3 antibodies labeled with Lumi4-Tb and d2 respectively (4 μL) diluted in Tag-lites) labelling medium, were added on cell lysate. Plates were then incubated at room temperature for 2 h or overnight before signal detection (as above).

B1: A3 antibody: human monoclonal antibody against FLT3; VH SEQ ID NO:1, VL SEQ ID NO:2 (antibody, V domains shown)
VH: EVQLVESGGSLVKPGGSLRLSCAASGFTFSNSYMNWVRQAPGKGLEWISDISGSSRDIDYADFVKGRFTISRDNATNSLYLQMNSLRAEDTAVYYCVRSGNSGMDVWGRGTLVTVSS
VL: QSVLTQPASVSGSPGQSITISCAGTSSDVGGGYYVSWYQQHPGKAPKLMIYYDSYRPSGVSNRFSGSKSGNTASLTISGLQAEDEADYYCSSYTNNSTRVFGGGTKLEIK
modifications: Synthetic VH domain of A3; Synthetic VL region of A3
Turning to B1, the “ELISA immunoreactivity against Fc fragment alone” value with Fc fragment alone is given as “not against the Fc fragment alone”. Further, in the assay with FLT3, the “FL-induced FLT3 autophosphorylation” value is listed as “inhibits FL-induced FLT3 autophosphorylation”.

The values are drawn from US10781452B2, “FLT3 receptor antagonists for the treatment or the prevention of pain disorders” (INSTITUT NATIONAL DE LA SANTE ET DE LA RECHERCHE MEDICALE …, priority 2010, dated 2020).
